Experimental data: patent publication US6936431 (dated 2005)
Several values for one entry are separate records, joined by “and”; a condition that tells them apart may be missing. Equal entries are not always repeated. Where two headings read alike, the source gives them in different places.

Columns and labels:
[1] = target: T1, rat brain farnesyl:protein transferase (rat, UniProt Q04631 2-377; Q02293 1-437); assay: farnesyltransferase activity inhibition; FIG. 10C
[2] = target: T1, rat brain farnesyl:protein transferase; assay: farnesyltransferase activity inhibition; FIG. 10A
[3] = target: T1, rat brain farnesyl:protein transferase; assay: farnesyltransferase activity inhibition; FIG. 10B
[4] = target: T1, rat brain farnesyl:protein transferase
[5] = target: T1, rat brain farnesyl:protein transferase; assay: farnesyltransferase activity inhibition; FIG. 12B
[6] = target: T1, rat brain farnesyl:protein transferase; assay: farnesyltransferase activity inhibition; FIG. 12A
[7] = target: T1, rat brain farnesyl:protein transferase; assay: farnesyltransferase activity inhibition; FIG. 11

CVLM
Ki [1]: 200 nM

CVAM
Ki [2]: 6000 nM

CVIK [CVIM with lysine at the X position (CVIK)]
Ki [3]: > 30000 nM

CVKM [CVIM with lysine at the A2 position (CVKM)]
Ki [3]: > 30000 nM

CVIM [CVIM (COOH-terminal tetrapeptide of p21^K-rasB)]
Ki [4]: 350 nM and 200 nM

CVFM
Ki [5]: 35 nM
Ki [6]: 10 nM

CVIL [CVIL (COOH-terminal tetrapeptide of rap2b)]
Ki [1]: 10500 nM

CVIA [CVIA (COOH-terminal tetrapeptide of a-Mating factor)]
Ki [2]: 4000 nM

CLIM
Ki [1]: 80 nM

CFIM
Ki [7]: 500 nM
